Measurements published in publication PMC8187593 (2021).

Molecular target: T1, cathepsin K mature active enzyme (Homo sapiens, UniProt P43235)
T1 chain: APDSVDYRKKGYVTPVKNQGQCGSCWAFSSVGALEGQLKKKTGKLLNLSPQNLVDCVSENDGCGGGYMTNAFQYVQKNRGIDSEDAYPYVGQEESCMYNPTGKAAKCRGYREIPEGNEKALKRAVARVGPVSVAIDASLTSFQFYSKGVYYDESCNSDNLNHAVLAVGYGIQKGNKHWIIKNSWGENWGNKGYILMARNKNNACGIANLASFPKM
Experiment: SPR

B1: vitronectin (pVN) (protein)
chain: DQESCKGRCTDGFIAERKCQCDELCSYYQSCCTDYVAECKPQVTRGDVFLQPDDEYRAYDYHEETRHNTSVQEEQRIPVLLAKTEETPVLKPEEEAPPPGPQTDDLGVPEEELCSGKPFDAFTNLKNGSVFAFRGLYCYELDEKAVRPGYPKLIQDVWGIKGPIDAAFTRINCQGKTYLFKGSQYWRFDDGVLDPNYPREISEGFKGIPDDVDAALALPAHSYSGRERVYFFKGKQYWEYVFQQQPSREECEGSSPSDVFAHFALMQRDSWEDIFRLLFWSHSFGGAIEPRVISQDWLGLPEQVDAAMAGQIYISGSALKPSQPKMTKSARRSGKRYRSRRGRGRGRGHSRSQKSHRQSRSTWLPWFSSEETGPGGYNYDDYKMDWLVPATCEPIQSVYFFSGEEYYRVNLRTQRVDTVTPPYPRSIAQYWLGCPVPDQK
Kd: 4.2 nM

B2: vitronectin (hVN) (protein)
chain: DQESCKGRCTEGFNVDKKCQCDELCSYYQSCCTDYTAECKPQVTRGDVFTMPEDEYTVYDDGEEKNNATVHEQVGGPSLTSDLQAQSKGNPEQTPVLKPEEEAPAPEVGASKPEGIDSRPETLHPGRPQPPAEEELCSGKPFDAFTDLKNGSLFAFRGQYCYELDEKAVRPGYPKLIRDVWGIEGPIDAAFTRINCQGKTYLFKGSQYWRFEDGVLDPDYPRNISDGFDGIPDNVDAALALPAHSYSGRERVYFFKGKQYWEYQFQHQPSQEECEGSSLSAVFEHFAMMQRDSWEDIFELLFWGRTSAGTRQPQFISRDWHGVPGQVDAAMAGRIYISGMAPRPSLAKKQRFRHRNRKGYRSQRGHSRGRNQNSRRPSRATWLSLFSSEESNLGANNYDDYRMDWLVPATCEPIQSVFFFSGDKYYRVNLRTRRVDTVDPPYPRSIAQYWLGCPAPGHL
Kd: 1.99 nM
